What was measured:
Assay in all cases: MTAP substrate assay, coupled spectrophotometric (adenine, xanthine oxidase)
Assay type in all cases: biochemical, human
Details in all cases: other: substrate of MTAP, 37° C.
[1] = substrate: COC[C@H]1O[C@@H](n2cnc3c(N)ncnc32)[C@H](O)[C@@H]1O
Protocol: (§1) An enzymatic assay to determine the activity of MTAP against a given substrate was performed. Human MTAP containing an N-terminal six-histidine tag was expressed in E. coli BL21 DE3 cells. The protein was purified to homogeneity by Ni2+ affinity chromatography. Enzymatic activity was measured using a coupled spectrophotometric assay designed to monitor the reaction product adenine (Savarese, T. M., Crabtree, G. W., and Parks, R. E. Jr., (1980) Biochem. Pharmacol. 30, 189-199). Various concentrations of the indicated 5′-deoxymethylthio adenosine (MTA) or substrate were incubated in assay buffer (40 mM potassium phosphate buffer, 1 mM, and DTT 0.8 units/ml xanthine oxidase coupling enzyme) for 5 minutes at 37° C. The reaction was initiated by the addition of MTAP. The exact concentration of enzyme used varied for each substrate tested and ranged from 2 nM to 500 nM. Activity as a function of enzyme concentration was determined for each substrate tested to ensure that the appropriate enzyme concentration was used. Activity was detected by continuous monitoring of absorbance at 305 nm for 10 minutes (ΔE=15,500 M^−1).
(§2) Library compounds (10 and 50 uM) were tested using the assay described above with 2 nM MTAP enzyme. The resultant initial velocities are reported as a percentage of the initial velocity observed when MTA is the substrate. MTA controls, 10 and 50 uM concentrations, were run on each plate alongside the library compounds.

[2] = substrate: COc1cccc(SC[C@H]2O[C@@H](n3cnc4c(N)ncnc43)[C@H](O)[C@@H]2O)c1
Protocol: as §1, §2

[3] = substrate: CSC[C@H]1O[C@@H](n2cnc3c(N)ncnc32)C[C@@H]1O
Protocol: as §1, §2

[4] = substrate: CSC[C@H]1O[C@@H](n2cnc3c(N)ncnc32)[C@@H](O)[C@@H]1O
Protocol: as §1, §2

[5] = substrate: Cc1ccc(SC[C@H]2O[C@@H](n3cnc4c(N)ncnc43)[C@H](O)[C@@H]2O)cc1
Protocol: as §1, §2

[6] = substrate: Cc1ccccc1CSC[C@H]1O[C@@H](n2cnc3c(N)ncnc32)[C@H](O)[C@@H]1O
Protocol: as §1, §2

[7] = substrate: Cc1ccccc1SC[C@H]1O[C@@H](n2cnc3c(N)ncnc32)[C@H](O)[C@@H]1O
Protocol: as §1, §2

[8] = substrate: Nc1ncnc2c1ncn2[C@@H]1O[C@H](C(=O)NCCO)[C@@H](O)[C@H]1O
Protocol: as §1, §2

[9] = substrate: Nc1ncnc2c1ncn2[C@@H]1O[C@H](CCc2ccccc2)[C@@H](O)[C@H]1O
Protocol: as §1, §2

[10] = substrate: Nc1ncnc2c1ncn2[C@@H]1O[C@H](CNCCc2ccccn2)[C@@H](O)[C@H]1O
Protocol: as §1, §2

[11] = substrate: Nc1ncnc2c1ncn2[C@@H]1O[C@H](COc2ccccn2)[C@@H](O)[C@H]1O
Protocol: as §1, §2

[12] = substrate: Nc1ncnc2c1ncn2[C@@H]1O[C@H](COc2cccnc2)[C@@H](O)[C@H]1O
Protocol: as §1, §2

[13] = substrate: Nc1ncnc2c1ncn2[C@@H]1O[C@H](CSC2CCCCC2)[C@@H](O)[C@H]1O
Protocol: as §1, §2

[14] = substrate: Nc1ncnc2c1ncn2[C@@H]1O[C@H](CSCCCc2ccccc2)[C@@H](O)[C@H]1O
Protocol: as §1, §2

[15] = substrate: Nc1ncnc2c1ncn2[C@@H]1O[C@H](CSCCO)[C@@H](O)[C@H]1O
Protocol: as §1, §2

[16] = substrate: Nc1ncnc2c1ncn2[C@@H]1O[C@H](CSCc2ccc(Cl)cc2)[C@@H](O)[C@H]1O
Protocol: as §1, §2

[17] = substrate: Nc1ncnc2c1ncn2[C@@H]1O[C@H](CSc2ccc(C(F)(F)F)cc2)[C@@H](O)[C@H]1O
Protocol: as §1, §2

[18] = substrate: Nc1ncnc2c1ncn2[C@@H]1O[C@H](CSc2ccccc2)[C@@H](O)[C@H]1O
Protocol: as §1, §2

[19] = substrate: Nc1ncnc2c1ncn2[C@@H]1O[C@H](CSc2ncccn2)[C@@H](O)[C@H]1O
Protocol: as §1, §2

B1: Human MTAP (Homo sapiens) (protein)
chain: MASGTTTTAVKIGIIGGTGLDDPEILEGRTEKYVDTPFGKPSDALILGKIKNVDCVLLARHGRQHTIMPSKVNYQANIWALKEEGCTHVIVTTACGSLREEIQPGDIVIIDQFIDRTTMRPQSFYDGSHSCARGVCHIPMAEPFCPKTREVLIETAKKLGLRCHSKGTMVTIEGPRFSSRAESFMFRTWGADVINMTTVPEVVLAKEAGICYASIAMATDYDCWKEHEEAVSVDRVLKTLKENANKAKSLLLTTIPQIGSTEWSETLHNLKNMAQFSVLLPRH
notes: six-histidine tag (His6) (N); made in house; host or cells: E. coli BL21 DE3
- Km [1]: 250 µM
- kcat [1]: 0.006 s⁻¹
- Km [2]: 2.2 µM
- kcat [2]: 1.4 s⁻¹
- Km [3]: 3.3 µM
- kcat [3]: 0.76 s⁻¹
- Km [4]: 106 µM
- kcat [4]: 0.006 s⁻¹
- Km [5]: 1.5 µM
- kcat [5]: 1.44 s⁻¹
- Km [6]: 10 µM
- kcat [6]: 0.79 s⁻¹
- Km [7]: 5.6 µM
- kcat [7]: 0.175 s⁻¹
- Km [8]: 1000 µM
- kcat [8]: 3 s⁻¹
- Km [9]: 1.3 µM
- kcat [9]: 4.6 s⁻¹
- Km [10]: 1300 µM
- kcat [10]: 0.018 s⁻¹
- Km [11]: 29 µM
- kcat [11]: 3.82 s⁻¹
- Km [12]: 33 µM
- kcat [12]: 0.126 s⁻¹
- Km [13]: 3.5 µM
- kcat [13]: 1.57 s⁻¹
- Km [14]: 2.8 µM
- kcat [14]: 2.16 s⁻¹
- Km [15]: 25 µM
- kcat [15]: 1.46 s⁻¹
- Km [16]: 3.9 µM
- kcat [16]: 3.3 s⁻¹
- Km [17]: 1.7 µM
- kcat [17]: 0.29 s⁻¹
- Km [18]: 3 µM
- kcat [18]: 1.5 s⁻¹
- Km [19]: 7 µM
- kcat [19]: 4.1 s⁻¹

From US20040043959A1, “Combination therapies for treating methylthioadenosine phosphorylase deficient cells” (priority 2002, published 2004)
